How the values were obtained:
HLA-B*58:01 = assay: IEDB peptide-MHC binding, purified MHC/direct/fluorescence; filed as Kd, often an IC50 or EC50 that approximates it; ≥ and ≤ were set here for values at or beyond the usual limits of such assays
HLA-A*11:01 [1] = assay: as above
HLA-B*07:02 = assay: as above
HLA-A*01:01 = assay: as above
HLA-B*15:09 = assay: as above
HLA-B*48:01 = assay: as above
HLA-A*02:01 = assay: as above
HLA-B*57:01 [2] = assay: as above
HLA-A*03:01 = assay: as above
HLA-B*27:05 = assay: as above
HLA-B*44:02 = assay: as above; settings: source organism: Yellow fever virus
HLA-A*31:01 [3] = assay: as above
HLA-B*18:01 [4] = assay: as above
HLA-B*46:01 [5] = assay: as above
HLA-A*29:02 = assay: as above; settings: source organism: Yellow fever virus
HLA-B*15:01 [6] = assay: as above
HLA-B*40:01 = assay: as above
HLA-A*69:01 [7] = assay: as above
HLA-A*26:03 = assay: as above
HLA-A*02:12 = assay: as above; settings: source organism: Ravn virus - Ravn, Kenya, 1987
HLA-A*24:03 = assay: as above; settings: Kenya
HLA-A*02:19 = assay: as above; settings: source organism: Ravn virus - Ravn, Kenya, 1987
HLA-A*02:03 = assay: as above; settings: source organism: Ravn virus - Ravn, Kenya, 1987
HLA-A*68:02 = assay: as above; settings: Kenya
HLA-A*23:01 = assay: as above; settings: source organism: Ravn virus - Ravn, Kenya, 1987
HLA-B*51:01 = assay: IEDB peptide-MHC binding, purified MHC/competitive/fluorescence; filed as Kd, often an IC50 or EC50 that approximates it; ≥ and ≤ were set here for values at or beyond the usual limits of such assays; settings: source organism: Zaire ebolavirus
HLA-B*15:17 [8] = assay: as above
HLA-A*26:01 = assay: as above; settings: source organism: Zaire ebolavirus
HLA-B*27:03 = assay: as above; settings: source organism: Zaire ebolavirus
HLA-B*57:01 [9] = assay: as above; settings: source organism: Zaire ebolavirus
HLA-B*18:01 [10] = assay: as above; settings: source organism: Zaire ebolavirus
HLA-B*46:01 [11] = assay: as above; settings: source organism: Zaire ebolavirus
HLA-B*15:01 [12] = assay: as above; settings: source organism: Zaire ebolavirus
HLA-A*69:01 [13] = assay: as above; settings: source organism: Zaire ebolavirus
HLA-B*39:01 [14] = assay: as above; settings: source organism: Zaire ebolavirus
HLA-C*15:02 = assay: IEDB peptide-MHC binding, purified MHC/direct/fluorescence; filed as Kd, often an IC50 or EC50 that approximates it; ≥ and ≤ were set here for values at or beyond the usual limits of such assays
HLA-A*24:02 = assay: IEDB peptide-MHC binding, purified MHC/competitive/fluorescence; filed as Kd, often an IC50 or EC50 that approximates it; ≥ and ≤ were set here for values at or beyond the usual limits of such assays; settings: source organism: Escherichia coli B7A
HLA-B*39:01 [15] = assay: IEDB peptide-MHC binding, purified MHC/direct/fluorescence; filed as Kd, often an IC50 or EC50 that approximates it; ≥ and ≤ were set here for values at or beyond the usual limits of such assays
HLA-A*26:02 = assay: IEDB peptide-MHC binding, purified MHC/competitive/fluorescence; filed as Kd, often an IC50 or EC50 that approximates it; ≥ and ≤ were set here for values at or beyond the usual limits of such assays; settings: source organism: Orthomarburgvirus marburgense
HLA-A*31:01 [16] = assay: as above; settings: source organism: Orthomarburgvirus marburgense
HLA-A*02:06 = assay: as above; settings: source organism: Orthomarburgvirus marburgense
HLA-B*15:17 [17] = assay: IEDB peptide-MHC binding, purified MHC/direct/fluorescence; filed as Kd, often an IC50 or EC50 that approximates it; ≥ and ≤ were set here for values at or beyond the usual limits of such assays; settings: source organism: Camelpox virus CMS
HLA-A*11:01 [18] = assay: IEDB peptide-MHC binding, purified MHC/competitive/fluorescence; filed as Kd, often an IC50 or EC50 that approximates it; ≥ and ≤ were set here for values at or beyond the usual limits of such assays; settings: source organism: Vaccinia virus
[19] = source organism: Yellow fever virus
[20] = source organism: Ravn virus - Ravn, 1987
[21] = source organism: Ravn virus - Ravn, Kenya, 1987
[22] = source organism: Marburg virus - Musoke, Kenya, 1980
[23] = source organism: Marburg virus - Musoke, 1980
[24] = source organism: Giardia lamblia ATCC 50803
[25] = source organism: Camelpox virus CMS

In the case of FHERGYVKL, the Kd (HLA-B*58:01; [19]) is reported as ≥ 20 µM, the Kd (HLA-A*11:01 [1]; [19]) is reported as ≥ 20 µM and the Kd (HLA-B*07:02; [19]) is reported as ≥ 20 µM. The Kd (HLA-A*01:01; [19]) was ≥ 20 µM, the Kd (HLA-B*15:09; [19]) was 0.071 µM and the Kd (HLA-B*48:01; [19]) was ≥ 20 µM. For the same sequence, the Kd (HLA-A*02:01; [19]) was ≥ 20 µM, the Kd (HLA-B*57:01 [2]; [19]) was ≥ 20 µM and the Kd (HLA-A*03:01; [19]) was ≥ 20 µM. For the same sequence, the Kd (HLA-B*27:05; [19]) was ≥ 20 µM, the Kd (HLA-B*44:02) was ≥ 20 µM and the Kd (HLA-A*31:01 [3]; [19]) was ≥ 20 µM. The Kd (HLA-B*18:01 [4]; [19]) was ≥ 20 µM, the Kd (HLA-B*46:01 [5]; [19]) was ≥ 20 µM and the Kd (HLA-A*29:02) was ≥ 20 µM. For the same sequence, the Kd (HLA-B*15:01 [6]; [19]) was ≥ 20 µM, the Kd (HLA-B*40:01; [19]) was ≥ 20 µM and the Kd (HLA-A*69:01 [7]; [19]) was ≥ 20 µM.

Work on FTYAPAGMY yielded a Kd (HLA-A*26:03; source organism: Listeria monocytogenes serotype 4b str. H7858) of 0.114 µM.

GLSFLNPEK was tested, and the Kd (HLA-A*02:12) was ≥ 20 µM, the Kd (HLA-A*24:03; [20]) was ≥ 20 µM and the Kd (HLA-A*02:19) was ≥ 20 µM. For the same sequence, the Kd (HLA-A*02:03) was ≥ 20 µM, the Kd (HLA-A*03:01; source organism: Sudan ebolavirus - Maleo (1979)) was 0.152 µM and the Kd (HLA-A*68:02; [20]) was ≥ 20 µM. For the same sequence, the Kd (HLA-A*23:01) was ≥ 20 µM, the Kd (HLA-B*51:01) was ≥ 20 µM and the Kd (HLA-B*15:17 [8]; source organism: Zaire ebolavirus) was ≥ 20 µM. The Kd (HLA-A*26:01) was ≥ 20 µM, the Kd (HLA-B*27:03) was ≥ 20 µM and the Kd (HLA-B*57:01 [9]) was ≥ 20 µM. The Kd (HLA-B*18:01 [10]) was ≥ 20 µM, the Kd (HLA-B*46:01 [11]) was ≥ 20 µM and the Kd (HLA-B*15:01 [12]) was ≥ 20 µM. For the same sequence, the Kd (HLA-A*69:01 [13]) was ≥ 20 µM and the Kd (HLA-B*39:01 [14]) was ≥ 20 µM.

ITPTIYLLL showed a Kd (HLA-C*15:02; source organism: Escherichia coli B7A) of 0.396 µM and a Kd (HLA-A*24:02) of 0.0007 µM.

For LFLSFCSLF, the Kd (HLA-B*58:01; [21]) was 1.38 µM, the Kd (HLA-A*11:01 [1]; [22]) was ≥ 20 µM and the Kd (HLA-B*07:02; [22]) was ≥ 20 µM. For the same sequence, the Kd (HLA-A*01:01; [22]) was ≥ 20 µM, the Kd (HLA-B*15:09; [21]) was ≥ 20 µM and the Kd (HLA-A*24:03; [23]) was 0.245 µM. For the same sequence, the Kd (HLA-A*26:03; [21]) was ≥ 20 µM, the Kd (HLA-A*02:01; [22]) was ≥ 20 µM and the Kd (HLA-B*57:01 [2]; [22]) was ≥ 20 µM. For the same sequence, the Kd (HLA-B*18:01 [4]; [22]) was ≥ 20 µM, the Kd (HLA-B*15:01 [6]; [22]) was ≥ 20 µM and the Kd (HLA-A*68:02; [23]) was ≥ 20 µM. For the same sequence, the Kd (HLA-A*69:01 [7]; [22]) was ≥ 20 µM, the Kd (HLA-B*39:01 [15]; [21]) was ≥ 20 µM and the Kd (HLA-B*15:17 [8]; source organism: Orthomarburgvirus marburgense) was ≥ 20 µM. For the same sequence, the Kd (HLA-A*26:02) was ≥ 20 µM, the Kd (HLA-A*31:01 [16]) was ≥ 20 µM and the Kd (HLA-A*02:06) was ≥ 20 µM.

RAIREYFQF showed a Kd (HLA-B*58:01; [24]) of 0.005 µM, a Kd (HLA-C*15:02; [24]) of 2.13 µM and a Kd (HLA-B*57:01 [2]; [24]) of 0.0477 µM.

VSEKYTDMY was tested, and the Kd (HLA-B*58:01; [25]) was ≥ 20 µM, the Kd (HLA-B*15:17 [17]) was 0.126 µM and the Kd (HLA-A*01:01; [25]) was 0.0033 µM. For the same sequence, the Kd (HLA-B*15:09; source organism: Variola virus) was ≥ 20 µM, the Kd (HLA-B*48:01; [25]) was ≥ 20 µM and the Kd (HLA-A*02:01; [25]) was ≥ 20 µM. The Kd (HLA-B*57:01 [2]; [25]) was ≥ 20 µM, the Kd (HLA-A*03:01; [25]) was ≥ 20 µM and the Kd (HLA-B*27:05; [25]) was ≥ 20 µM. For the same sequence, the Kd (HLA-A*31:01 [3]; [25]) was ≥ 20 µM, the Kd (HLA-B*46:01 [5]; [25]) was ≥ 20 µM and the Kd (HLA-B*15:01 [6]; [25]) was ≥ 20 µM. The Kd (HLA-B*40:01; [25]) was ≥ 20 µM, the Kd (HLA-A*69:01 [7]; [25]) was ≥ 20 µM and the Kd (HLA-B*39:01 [15]; source organism: Variola virus) was ≥ 20 µM. For the same sequence, the Kd (HLA-A*11:01 [18]) was ≥ 20 µM.

With VSTAIAALF the Kd (HLA-B*58:01; source organism: Mycobacterium tuberculosis) was 0.0284 µM and the Kd (HLA-C*15:02; source organism: Mycobacterium tuberculosis H37Ra) was 0.45 µM.
